Results: publication PMC9160799, “PET Imaging of Acidic Tumor Environment With ^89Zr-labeled pHLIP Probes” (Frontiers in Oncology, 2022)

Experiments:
[1] = Post-mortem biodistribution, RM-1 tumor model; assay type: in vivo, male athymic nude mice; conditions: male, athymic nude, mouse, in vivo, iv, 1.2 nmol, total radioactivity
Procedure: (§1) The media were provided by the MSK Media Preparation Core. […] Another aliquot was diluted with the medium so that 50 µL contained 1×10^6 cells.
(§2) The imaging and biodistribution studies were performed with male (RM-1 model) and female (4T1 model) athymic nude mice and the kidney-blocking experiments were performed with female SCID mice received from Charles River Laboratories (Stone Ridge, NY). After arrival, the mice were kept in the MSK vivarium for one week before any experimental handling was performed. The animals were allowed free access to water and food, and all animal care and experimental procedures were approved by the Institutional Animal Care and Use Committee (IACUC). For the subcutaneous allografts, a 1-to-1 ratio of Corning Matrigel Matrix and the cell solution was prepared and stored on ice for the injections. Each mouse received a subcutaneous injection of 100 µL (50 µL cell solution, viability > 90%, + 50 µL Matrigel) into the flank on the level of the right shoulder. The injections were performed under anesthesia (2% isoflurane, Baxter Healthcare, Deerfield, IL, USA).
(§3) The mice were intravenously injected (tail vein) with the radiolabeled pHLIP conjugates (1.2 nmol, 7.4 MBq/200 µCi, 100 µL, in sterile filtered PBS). The activity of the syringe prior to injection and after injection was used to determine the percent of injectate administered.
(§4) For the biodistribution studies the tumor-bearing mice were randomized before the injections. Only mice with suitable tumors (150–300 mm^3) were utilized. An exception was made for the 120-hour timepoint, for which only mice with smaller tumors (150 mm^3) were selected. The mice were grouped in cohorts of four. At the respective timepoint, the mice were euthanized (by CO2 asphyxiation, followed by cervical dislocation) and their blood was collected by cardiac puncture as a terminal procedure, followed by quick removal of the tumors. After this, the other organs/samples were collected. […] The exact activities of all samples of one mouse were determined by an Capintec® CRC-55tR dose calibrator. These decay-corrected measurements were used to determine a calibration factor and calibrate all counts to the corresponding activities. Activity concentrations were calculated as percentage injected dose per tissue weight (%ID/g wet tissue). All data was processed and visualized using Origin 8.5.

4T1 tumor allografts [2] = assay: in vivo; design: species or system female athymic nude mice; conditions: mouse, iv
Procedure: as §1, §2, §3, §4

in vivo = assay: in vivo; design: species or system female athymic nude mice; conditions: female, athymic nude, mouse, iv, 1.2 nmol, total radioactivity
Procedure: as §1, §2, §3, §4

[3] = assay type: in vitro ADME, human
Procedure: A potential degradation of the compounds was investigated by serum stability assay. For this, 100 µL of the prepared PBS solution (containing 1.2 nmol of pHLIP and 7.4 MBq/200 µCi) was added to 900 µL of human serum (heat inactivated from Millipore Sigma) and incubated for seven days at 37°C. The release of free ^89Zr^4+ was measured by radio instant thin-layer chromatography (as described above) and the degradation of the whole construct was checked by radio high-performance liquid chromatography (HPLC). The analytical reverse-phase HPLC was performed on a Shimadzu system equipped with a Flow Count PIN diode radiodetector from BioScan, a DGU-20A degasser, two LC-20AB pumps, and an SPD-M20A photodiode array detector. A BetaBasic 18 column (150 Å, 5.0 µm, 4.6×150 mm, Thermo Scientific) was used with water (+ 0.1% trifluoroacetic acid) and acetonitrile (+ 0.1% trifluoroacetic acid) as solvents. The gradient started at 5% acetonitrile and increased to 95% over 15 minutes at a constant flowrate of 1 mL/min. The radiochemical purities of all ^89Zr-radiolabeled pHLIP conjugates were greater than 90% over the course of seven days.

4T1 tumor allografts [4] = test system: 4T1 tumor allografts; design: species or system female athymic nude mice; conditions: mouse, in vivo, iv

CC(=O)N(O)CCCCCNC(=O)CCC(=O)N(O)CCCCCNC(=O)CCC(=O)N(O)CCCCCNC(=O)CCN1C(=O)CC(SC[C@@H](NC(=O)[C@@H](C)N)C(=O)N[C@H](CC(=O)O)C(=O)N[C@H](CC(=O)O)C(=O)N[C@H](CCC(N)=O)C(=O)N[C@H](CC(N)=O)C(=O)N2CCC[C@@H]2C(=O)N[C@H](Cc2c[nH]c3ccccc23)C(=O)N[C@H](CCCNC(=N)N)C(=O)N[C@H](C)C(=O)N[C@H](Cc2ccc(O)cc2)C(=O)N[C@H](CC(C)C)C(=O)N[C@H](CC(=O)O)C(=O)N[C@H](CC(C)C)C(=O)N[C@H](CC(C)C)C(=O)N[C@H](Cc2ccccc2)C(=O)N2CCC[C@@H]2C(=O)N[C@@H](C(=O)N[C@H](CC(=O)O)C(=O)N[C@@H](C(=O)N[C@H](CC(C)C)C(=O)N[C@H](CC(C)C)C(=O)N[C@H](CC(C)C)C(=O)N[C@H](CC(=O)O)C(=O)N[C@H](CC(C)C)C(=O)N[C@H](CC(C)C)C(=O)N[C@H](Cc2c[nH]c3ccccc23)C(=O)O)[C@H](C)O)[C@H](C)O)C1=O (stereo partly drawn) (89Zr complex, metal not drawn) [DFO-Cys-Var3]
tissue uptake at 48 h ([1]; RM-1, male athymic nude mice, 48 h p.i., i.v. 1.2 nmol, 7.4 MBq, gamma counting, mean ± S.D., n=4, read-out: Brain uptake): 0.08 ± 0.01 %ID/g | tissue uptake at 48 h ([1]; RM-1, male athymic nude mice, 48 h p.i., i.v. 1.2 nmol, 7.4 MBq, gamma counting, mean ± S.D., n=4, read-out: Pancreas uptake): 0.7 ± 0.1 %ID/g | tissue uptake at 48 h ([1]; Tibia uptake): 1.4 ± 0.1 %ID/g | (biological) blood clearance half-life (4T1 tumor allografts [2]): 16.0 ± 0.4 hours | tissue uptake at 4 h (in vivo; Blood uptake): 16.1 ± 0.6 %ID/g | tissue uptake at 24 h (in vivo; Blood uptake): 5.8 ± 0.5 %ID/g | tissue uptake at 48 h (in vivo; Blood uptake): 2.2 ± 0.1 %ID/g | tissue uptake at 72 h (in vivo; Blood uptake): 1 ± 0.1 %ID/g | tissue uptake at 120 h (in vivo; Blood uptake): 0.2 ± 0.05 %ID/g | tissue uptake at 4 h (in vivo; Heart uptake): 4.2 ± 0.5 %ID/g | tissue uptake at 24 h (in vivo; Heart uptake): 3 ± 0.4 %ID/g | tissue uptake at 48 h (in vivo; Heart uptake): 2.6 ± 0.1 %ID/g | tissue uptake at 72 h (in vivo; Heart uptake): 1.9 ± 0.2 %ID/g | tissue uptake at 120 h (in vivo; Heart uptake): 1.6 ± 0.3 %ID/g | tissue uptake at 4 h (in vivo; Kidneys uptake): 19.8 ± 3.3 %ID/g | tissue uptake at 24 h (in vivo; Kidneys uptake): 44.3 ± 6.5 %ID/g | tissue uptake at 48 h (in vivo; Kidneys uptake): 47.6 ± 11.5 %ID/g | tissue uptake at 72 h (in vivo; Kidneys uptake): 46.3 ± 8.3 %ID/g | tissue uptake at 120 h (in vivo; Kidneys uptake): 35.3 ± 5.9 %ID/g | tissue uptake at 4 h (in vivo; Liver uptake): 4.8 ± 0.4 %ID/g | tissue uptake at 24 h (in vivo; Liver uptake): 6.1 ± 0.7 %ID/g | tissue uptake at 48 h (in vivo; Liver uptake): 6.6 ± 0.1 %ID/g | tissue uptake at 72 h (in vivo; Liver uptake): 6.7 ± 0.7 %ID/g | tissue uptake at 120 h (in vivo; Liver uptake): 6 ± 0.3 %ID/g | tissue uptake at 4 h (in vivo; Lungs uptake): 11.2 ± 2 %ID/g | tissue uptake at 24 h (in vivo; Lungs uptake): 3.8 ± 0.9 %ID/g | tissue uptake at 48 h (in vivo; Lungs uptake): 2.7 ± 0.3 %ID/g | tissue uptake at 72 h (in vivo; Lungs uptake): 2 ± 0.1 %ID/g | tissue uptake at 120 h (in vivo; Lungs uptake): 1.8 ± 0.3 %ID/g | tissue uptake at 24 h (in vivo; Pancreas uptake): 1.8 ± 0.2 %ID/g | tissue uptake at 48 h (in vivo; Pancreas uptake): 1.5 ± 0.4 %ID/g | tissue uptake at 72 h (in vivo; Pancreas uptake): 1.5 ± 0.2 %ID/g | tissue uptake at 120 h (in vivo; Pancreas uptake): 1.4 ± 0.1 %ID/g | tissue uptake at 4 h (in vivo; Skin uptake): 2.7 ± 0.6 %ID/g | tissue uptake at 24 h (in vivo; Skin uptake): 3.7 ± 0.4 %ID/g | tissue uptake at 48 h (in vivo; Skin uptake): 3.9 ± 0.7 %ID/g | tissue uptake at 72 h (in vivo; Skin uptake): 3.5 ± 0.6 %ID/g | tissue uptake at 120 h (in vivo; Skin uptake): 3.7 ± 0.1 %ID/g | tissue uptake at 4 h (in vivo; Spleen uptake): 2.7 ± 0.5 %ID/g | tissue uptake at 24 h (in vivo; Spleen uptake): 4.1 ± 0.7 %ID/g | tissue uptake at 48 h (in vivo; Spleen uptake): 5.1 ± 2 %ID/g | tissue uptake at 72 h (in vivo; Spleen uptake): 4.3 ± 0.4 %ID/g | tissue uptake at 120 h (in vivo; Spleen uptake): 6.1 ± 1 %ID/g | tissue uptake at 4 h (in vivo; Tibia uptake): 1.8 ± 0.2 %ID/g | tissue uptake at 24 h (in vivo; Tibia uptake): 1.8 ± 0.06 %ID/g | tissue uptake at 48 h (in vivo; Tibia uptake): 1.5 ± 0.4 %ID/g | tissue uptake at 72 h (in vivo; Tibia uptake): 1.6 ± 0.2 %ID/g | tissue uptake at 4 h (in vivo; Tumor uptake): 5.6 ± 0.8 %ID/g | tissue uptake at 24 h (in vivo; Tumor uptake): 9.4 ± 1.2 %ID/g | tissue uptake at 48 h (in vivo; Tumor uptake): 9.7 ± 1.7 %ID/g | tissue uptake at 72 h (in vivo; Tumor uptake): 9.1 ± 1 %ID/g | tissue uptake at 120 h (in vivo; Tumor uptake): 6.8 ± 0.7 %ID/g | radiochemical purity after incubation in human serum [3]: > 90% | biological half-life for total body excretion (4T1 tumor allografts [4]): 415 ± 10 hours
